No end group written: not given here. *: point of attachment. Dodecyl = CCCCCCCCCCCC*

One assay deals with T1, Rat recombinant TF (Rattus norvegicus, UniProt P42533).
T1 construct: purchased Cloud Clone Corp
T1 sequence (P42533 29-295): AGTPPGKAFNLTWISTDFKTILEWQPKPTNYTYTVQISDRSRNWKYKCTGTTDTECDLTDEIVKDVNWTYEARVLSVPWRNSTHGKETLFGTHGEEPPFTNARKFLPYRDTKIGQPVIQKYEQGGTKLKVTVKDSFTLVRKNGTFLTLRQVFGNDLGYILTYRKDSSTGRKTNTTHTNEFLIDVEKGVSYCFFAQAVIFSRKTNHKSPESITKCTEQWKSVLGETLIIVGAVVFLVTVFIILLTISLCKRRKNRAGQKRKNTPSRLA
Put plainly: Plate-based in vitro binding assay of TF-targeting peptides to recombinant TF. Particulars: for absorbance (binding to recombinant TF): 450 nm, coated peptides incubated with 75 ng recombinant TF; for dose response of absorbance with recombinant TF: peptide-coated plates, increasing concentrations of recombinant TF. As for the experimental part: A plate-based binding assay for the TF-targeting peptides was performed as follows. Peptides were dissolved in water at a concentration of 60 μM and coated onto BD Falcon OptiLux 96-well plates (BD Biosciences, Franklin Lakes, N.J.) by incubating them at 37° C. for 2 hours, then at 4° C. overnight. Next, wells were blocked using Superblock phosphate buffered saline (PBS) blocking buffer (200 μL per well, Thermo Scientific, Waltham, Mass.) for 2 hours at room temperature, then washed two times with water. Rat recombinant TF (Cloud Clone Corp, Houston, Tex.) was added in amounts of 12.5-75.0 ng, dissolved in PBS for a total volume of 50 μL/well and incubated at room temperature for 4 hours. Plates were rinsed with water twice, then blocked with Superblock PBS blocking buffer for 30 minutes at room temperature. Colorimetric immunodetection was then performed by incubating wells with anti-TF antibody (Cat. #: ab104513, rabbit polyclonal, Abcam, Cambridge, Mass.) dissolved in Superblock PBS blocking buffer (1:5000) at 4° C. overnight. Wells were washed in water 4 times, and then incubated with a secondary goat-anti-rabbit antibody (Thermo scientific, Rockford, Ill.) conjugated to horseradish peroxidase and dissolved 1:5000 in Superblock PBS blocking buffer for 2 hours at room temperature. Wells were then rinsed 4 times in water, developed using TMB developing solution (TMB Substrate, Thermo Scientific, Waltham, Mass.) for 15 minutes, then stopped with 0.18 M H2SO4 (Sigma Aldrich, St. Louis, Mo.). Plates were immediately read using an Epoch plate reader (BioTek, Winooski, Vt.) at 450 nm. Wells were coated in triplicate, and the assay was performed three times. Treatment groups were each peptide as stated above. Negative controls were wells coated with blocking buffer rather than peptide, and positive controls were wells coated with rat recombinant TF (Cloud Clone Corp) at 12.5 and 25 ng/well.

A further assay has as its system Sprague Dawley rats. Put plainly: Liver punch hemorrhage model, blood loss. In kind it is in vivo. Particulars: % total blood volume, rat liver punch model, 30 minutes, 2.5 mg PA by tail vein. As for the experimental part: (§1) At the end of 30 minutes, animals were euthanized.
Blood loss was presented as % total blood volume. […] Data were log transformed for analysis.

The subject of another assay is injured liver. Put plainly: Fluorescent microscopy of nanofiber binding in liver and other organs after liver punch injury. Particulars: rat liver punch model, tail vein injection, fluorescently labeled nanofiber. In kind it is in vivo. Here is the method: as §1
In situ perfusion with 400 mL of a PBS solution was performed, and organs including the kidneys, spleen, lung, uninjured liver, and injured lobe of the liver were collected for tissue processing. Samples were fixed in 2% paraformaldehyde for 2 hours, then 30% sucrose overnight. Samples were then frozen in Tissue-Tek OTC compound (Sakura Finetek, Torrance, Calif.) over liquid nitrogen and stored at −20° C. A LEICA CM 1950 cryostat (LEICA Biosystems, Buffalo Grove, Ill.) was used to cut samples into 10-μm sections, which were stained with 4′,6-diamidino-2-phenylindole (DAPI, Invitrogen, Grand Island, N.Y.), and fixed with ProLong® Gold antifade reagent (Life Technologies, Eugene, Oreg.). […]
Digital images were acquired using a Zeiss LSM-510 microscope (Hallbergmoos, Germany) with a 20× objective. The HE CY3 filter (Zeiss filter #43) using excitation and emission wavelength 550-575 nm and 605-670 nm, respectively, was used to assess PA fluorescence. […] The green fluorescent protein filter (Zeiss filter #38) using excitation and emission wavelengths of 470-495 nm and 525-550 nm, respectively, was used to assess tissue auto-fluorescence.

For the molecule “A2V2K2—C12 (KKAAVVK) [non-specific peptide, non-specific peptide, consisting of the filler peptide, selected as a non-targeted control]”, in the assay with Rat recombinant TF, the “absorbance (binding to recombinant TF)” value came out at 0.2±0.03.

Turning to RLMTQDCLQQRSK, in the assay with Rat recombinant TF, the “absorbance (binding to recombinant TF)” value came to 0.29±0.02 and the “dose response of absorbance with recombinant TF” value is “increased absorbance with increasing concentrations of recombinant TF”. On to “KKAAVV(K)-C12 (KKAAVVK(Dodecyl)-NH2; not fully specified; printed as KKAAVV(K)-C12) [non-specific PA nanofiber]”, for which, in the assay with Sprague Dawley rats, the total blood loss worked out at 21±2%. In addition, in the assay with injured liver, the “fluorescence in injured liver” value was “No fluorescence was observed”. As for RTLAFVRFK, in the assay with Rat recombinant TF, the “absorbance (binding to recombinant TF)” value was determined as 0.28±0.03 and the “dose response of absorbance with recombinant TF” value is “increased absorbance with increasing concentrations of recombinant TF”. Take EGRNCETHKDDQL: the “absorbance (binding to recombinant TF)” value in the assay with Rat recombinant TF is 0.19±0.3.

B1: recombinant TF: rat recombinant tissue factor (Cloud Clone Corp) coated on wells as positive control (protein)
chain: AGTPPGKAFNLTWISTDFKTILEWQPKPTNYTYTVQISDRSRNWKYKCTGTTDTECDLTDEIVKDVNWTYEARVLSVPWRNSTHGKETLFGTHGEEPPFTNARKFLPYRDTKIGQPVIQKYEQGGTKLKVTVKDSFTLVRKNGTFLTLRQVFGNDLGYILTYRKDSSTGRKTNTTHTNEFLIDVEKGVSYCFFAQAVIFSRKTNHKSPESITKCTEQWKSVLGE
With B1, in the assay with Rat recombinant TF, the “absorbance (binding to recombinant TF)” value was determined as 0.32±0.01.
